Values of other authors, collected in paper PMC3166974.

Key:
[1] = target: PKR (Homo sapiens) (UniProt P19525)
[2] = target: SecA (Escherichia coli) (UniProt P10408)

Substance: PKR (from UniProt P19525)
- Kd [1]: 500 µM

Substance: SecA (from UniProt P10408)
- Kd [2]: 18.6 µM
